Data: article PMC3811882, “The PR/SET Domain Zinc Finger Protein Prdm4 Regulates Gene Expression in Embryonic Stem Cells but Plays a Nonessential Role in the Developing Mouse Embryo”
Numbering of substitutions follows the chain as printed.

B1: wild-type Bahcc1 (dsDNA)
DNA 1: GGCCTGGGTCGGCCCGCGGGGATCCTGGAAACCGTCCCCGGTTTATCTCCTT
DNA 2: GGAAGGAGATAAACCGGGGACGGTTTCCAGGATCCCCGCGGGCCGACCCAGG
B2: ΔGAAAC Bahcc1 (dsDNA)
DNA 1: B1 DNA 1 with G28T, A29C, A30C, A31C, C32A
DNA 2: B1 DNA 2 with G23T, T24G, T25G, T26G, C27A

Molecular target: Prdm4-ZFD (UniProt Q80V63 582-760)
Sequence (Q80V63 582-760): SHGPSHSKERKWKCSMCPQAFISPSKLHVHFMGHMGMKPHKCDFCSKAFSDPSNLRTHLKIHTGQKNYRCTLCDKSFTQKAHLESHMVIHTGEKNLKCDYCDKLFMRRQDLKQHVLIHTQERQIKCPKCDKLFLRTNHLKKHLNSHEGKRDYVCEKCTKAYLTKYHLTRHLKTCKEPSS
Test: EMSA; EMSA as previously described (ref 41); 0.8% agarose gels for nuclear complexes, 5% acrylamide for purified His-tagged Prdm4; buffer, salt, pH and temperature not given
Details: protein: recombinant; tags: His-HA; 5' overhang 2 nt (GG) on each strand

| Binder | binding result |
| --- | --- |
| B1 | binds |
| B2 | no binding |
